From US20180057581A1 (MorphoSys, published 2018) come the findings set out here.

In assay [1] the target is T1, Ovalbumin (chicken) (chicken, UniProt P01012 2-386).
T1 sequence (looked up): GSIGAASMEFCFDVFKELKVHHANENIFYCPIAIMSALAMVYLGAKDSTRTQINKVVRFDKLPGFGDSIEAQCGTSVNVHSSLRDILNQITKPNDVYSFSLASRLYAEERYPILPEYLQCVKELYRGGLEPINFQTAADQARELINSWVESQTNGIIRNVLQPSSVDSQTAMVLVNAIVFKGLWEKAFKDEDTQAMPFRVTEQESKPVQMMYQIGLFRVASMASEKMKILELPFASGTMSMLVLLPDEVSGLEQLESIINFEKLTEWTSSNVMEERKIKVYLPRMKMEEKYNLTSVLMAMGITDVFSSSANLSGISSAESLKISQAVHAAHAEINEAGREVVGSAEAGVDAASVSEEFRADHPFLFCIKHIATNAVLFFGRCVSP
Put plainly: MSD specificity profiling, coated protein, Camille at 10 nM. On the procedure: (§1) For this specificity profiling test the different proteins and controls were coated on two 384-well MSD plates with a concentration of 1 μg/ml at 4° C. over night. Plates were blocked with BSA and washed three times with PBS with 0.05% (v/v) Tween 20. Antibody samples were diluted to 100 nM and 10 nM in assay buffer (PBS with 0.5% (w/v) BSA, 0.05% (v/v) Tween 20). […] Samples and controls were incubated for three hours at room temperature. The plates were washed three times and 30 μl detection antibody (ECL-labeled anti-human Fab) were added per well and incubated for 1 h. After washing, MSD Read Buffer T with surfactant was added and electrochemiluminescence signals were detected using a Sector Imager 6000 (Meso Scale Discovery, Gaithersburg, Md., USA).

The target of assay [2] is Cytokine 2 (human) (human). Described as above. On the procedure: as §1
Assay [3] concerns the target T2, human M-CSF (human, UniProt P09603 33-255, limits assumed).
T2 construct: also called M-CSF (human); CSF-1
T2 sequence: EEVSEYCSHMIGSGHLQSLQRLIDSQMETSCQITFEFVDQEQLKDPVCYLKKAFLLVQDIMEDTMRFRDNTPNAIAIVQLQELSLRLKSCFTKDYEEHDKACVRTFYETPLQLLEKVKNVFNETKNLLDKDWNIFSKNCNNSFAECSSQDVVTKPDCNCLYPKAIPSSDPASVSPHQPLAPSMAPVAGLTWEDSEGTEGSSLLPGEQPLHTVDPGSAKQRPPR
The description is as above. The procedure: as §1

Assay [4] concerns the target T3, Trypsinogen (cow) (cow, UniProt P00760 18-246).
T3 sequence (looked up): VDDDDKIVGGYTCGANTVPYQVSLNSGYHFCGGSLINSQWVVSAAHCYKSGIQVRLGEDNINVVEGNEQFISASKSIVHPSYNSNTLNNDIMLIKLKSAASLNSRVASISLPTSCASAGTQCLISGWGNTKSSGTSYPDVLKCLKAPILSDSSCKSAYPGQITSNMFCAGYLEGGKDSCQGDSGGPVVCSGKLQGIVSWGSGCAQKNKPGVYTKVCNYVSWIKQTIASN
Put plainly: MSD specificity profiling, coated protein. The procedure: as §1

Assay [5] addresses T4, Fibrinogen (bovine) (bovine, UniProt P02672 20-615; P02676 1-468; P12799 25-444).
T4 sequence (looked up) 1: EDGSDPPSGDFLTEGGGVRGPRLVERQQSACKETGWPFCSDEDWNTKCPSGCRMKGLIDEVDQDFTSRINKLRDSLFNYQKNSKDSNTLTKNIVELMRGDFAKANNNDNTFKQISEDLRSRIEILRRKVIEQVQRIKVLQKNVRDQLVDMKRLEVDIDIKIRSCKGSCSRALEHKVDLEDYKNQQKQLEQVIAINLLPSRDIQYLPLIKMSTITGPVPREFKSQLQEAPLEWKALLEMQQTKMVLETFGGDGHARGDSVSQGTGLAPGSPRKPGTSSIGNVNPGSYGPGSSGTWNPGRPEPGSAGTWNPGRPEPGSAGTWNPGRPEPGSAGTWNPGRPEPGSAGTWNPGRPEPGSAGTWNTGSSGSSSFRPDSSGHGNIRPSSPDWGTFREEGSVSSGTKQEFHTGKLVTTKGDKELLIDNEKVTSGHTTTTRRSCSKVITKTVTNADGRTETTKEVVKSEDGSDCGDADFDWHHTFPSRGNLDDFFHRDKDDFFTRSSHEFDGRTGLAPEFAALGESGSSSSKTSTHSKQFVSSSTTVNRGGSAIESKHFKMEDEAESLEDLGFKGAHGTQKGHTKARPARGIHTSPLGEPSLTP
T4 sequence (looked up) 2: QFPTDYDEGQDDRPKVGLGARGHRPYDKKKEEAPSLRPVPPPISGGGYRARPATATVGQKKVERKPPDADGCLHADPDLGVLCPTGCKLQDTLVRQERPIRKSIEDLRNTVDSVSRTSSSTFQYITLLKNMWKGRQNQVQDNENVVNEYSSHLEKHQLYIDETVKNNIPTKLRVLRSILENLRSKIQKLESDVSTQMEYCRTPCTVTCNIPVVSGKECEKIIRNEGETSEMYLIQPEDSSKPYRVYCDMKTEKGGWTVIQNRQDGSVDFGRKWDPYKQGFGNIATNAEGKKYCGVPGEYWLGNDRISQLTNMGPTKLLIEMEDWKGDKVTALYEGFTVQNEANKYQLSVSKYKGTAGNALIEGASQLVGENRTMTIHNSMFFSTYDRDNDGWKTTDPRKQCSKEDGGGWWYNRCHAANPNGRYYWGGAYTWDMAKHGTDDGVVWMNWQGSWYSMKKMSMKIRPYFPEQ
T4 sequence (looked up) 3: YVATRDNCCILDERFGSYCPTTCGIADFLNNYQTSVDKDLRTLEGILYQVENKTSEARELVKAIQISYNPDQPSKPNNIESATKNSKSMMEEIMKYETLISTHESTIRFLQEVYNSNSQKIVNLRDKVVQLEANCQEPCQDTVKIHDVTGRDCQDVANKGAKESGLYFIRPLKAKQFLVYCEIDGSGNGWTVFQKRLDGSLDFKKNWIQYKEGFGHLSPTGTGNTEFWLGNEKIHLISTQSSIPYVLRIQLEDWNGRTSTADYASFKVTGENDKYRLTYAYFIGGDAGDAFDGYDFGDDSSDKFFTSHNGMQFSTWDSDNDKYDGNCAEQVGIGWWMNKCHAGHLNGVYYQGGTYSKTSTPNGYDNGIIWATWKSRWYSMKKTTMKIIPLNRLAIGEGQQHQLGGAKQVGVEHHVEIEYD
The assay is described as follows: MSD specificity profiling, coated protein. The procedure:
as §1

The target of assay [6] is Lysozyme (chicken) (chicken, UniProt P00698 19-147). The assay is described as follows: MSD specificity profiling, coated protein. The procedure: as §1
Assay [7] addresses Pepsinogen (pork) (pork, UniProt P00791 16-385). The assay is described as follows: MSD specificity profiling, coated protein. On the procedure:
as §1

In assay [8] the target is Transferrin (bovine) (bovine, UniProt Q29443 20-704). The assay is described as follows: MSD specificity profiling, coated protein. The procedure:
as §1

Sequence of Lysozyme (chicken) (P00698 19-147): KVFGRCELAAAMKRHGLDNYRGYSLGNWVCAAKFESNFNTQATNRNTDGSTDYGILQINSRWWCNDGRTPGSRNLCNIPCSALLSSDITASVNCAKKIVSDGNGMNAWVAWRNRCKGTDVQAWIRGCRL
Sequence of Pepsinogen (pork) (P00791 16-385): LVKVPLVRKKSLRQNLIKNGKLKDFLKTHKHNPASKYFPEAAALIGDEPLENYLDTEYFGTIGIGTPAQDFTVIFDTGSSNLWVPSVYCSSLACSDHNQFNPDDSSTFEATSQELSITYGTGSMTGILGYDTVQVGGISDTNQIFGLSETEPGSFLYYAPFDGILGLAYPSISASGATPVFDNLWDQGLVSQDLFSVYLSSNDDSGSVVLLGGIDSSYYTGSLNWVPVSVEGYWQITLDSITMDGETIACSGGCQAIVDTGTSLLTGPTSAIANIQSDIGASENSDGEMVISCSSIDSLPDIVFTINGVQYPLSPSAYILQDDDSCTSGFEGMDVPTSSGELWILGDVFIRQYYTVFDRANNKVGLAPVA
Sequence of Transferrin (bovine) (Q29443 20-704 limits assumed): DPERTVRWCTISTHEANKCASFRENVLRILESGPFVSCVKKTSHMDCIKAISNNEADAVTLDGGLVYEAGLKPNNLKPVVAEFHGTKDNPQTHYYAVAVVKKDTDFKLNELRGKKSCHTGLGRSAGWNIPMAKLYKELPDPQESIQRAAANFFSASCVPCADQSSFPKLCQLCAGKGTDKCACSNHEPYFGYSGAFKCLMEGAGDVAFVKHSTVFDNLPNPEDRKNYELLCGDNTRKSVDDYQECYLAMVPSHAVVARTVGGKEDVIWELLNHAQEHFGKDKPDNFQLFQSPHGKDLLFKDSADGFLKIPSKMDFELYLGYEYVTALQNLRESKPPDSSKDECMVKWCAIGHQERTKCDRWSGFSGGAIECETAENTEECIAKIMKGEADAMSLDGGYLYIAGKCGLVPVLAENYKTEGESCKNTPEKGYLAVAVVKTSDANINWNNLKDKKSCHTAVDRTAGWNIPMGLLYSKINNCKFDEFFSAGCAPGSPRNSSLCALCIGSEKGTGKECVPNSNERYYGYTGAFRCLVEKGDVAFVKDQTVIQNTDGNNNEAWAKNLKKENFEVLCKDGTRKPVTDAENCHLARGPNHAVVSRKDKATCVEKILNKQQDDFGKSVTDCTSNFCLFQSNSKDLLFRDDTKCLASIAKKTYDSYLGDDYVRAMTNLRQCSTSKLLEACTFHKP

B1: Camille (format not stated) (antibody, V domains shown)
VH: QVQLQQSGPGLVKPSQTLSLTCAISGESVSTSSAAWNWIRQSPSRGLEWLGRTYYRSKWKHEYAVSVKSRITINPDTSKNQFSLQLNSVTPEDTAVYYCARDRYYYSAFDYWGQGTLVTVSS
VL: QSALTQPASVSGSPGQSITISCTGTSSDVGGYNSVSWYQQHPGKAPKLLIYAVSNRPSGVSNRFSGSKSGNTASLTISGLQAEDEADYYCASYDERFTRVFGGGTKLTVLG
notes: also called Antibody Camille
For the molecule B1, the figures for the “signal normalized to reference antibody MOR03207” value in assay [1], in assay [2] and in assay [3] were 1 ratio, 1 ratio and 244 ratio, respectively. The binding result in assay [4] was “no binding (tested: 100 nM and 10 nM antibody)”; in assay [5], “no binding (tested: 100 nM and 10 nM antibody)”; in assay [6], “no binding (tested: 100 nM and 10 nM antibody)”; in assay [7], “no binding (tested: 100 nM and 10 nM antibody)”; in assay [8], “no binding (tested: 100 nM and 10 nM antibody)”.
